Measurements as given in the supplement of paper PMC6757056.
± gives the standard deviation of the averaged measurements.

B1: library; a variant is named by its letters at N, in order (parent)
chain: GCUGUCACCGGUGUAUUACCCUAGUGGUCGACCGGUCUGAUGAGUCUNNNNNNAGACGAAACAGC

Columns and labels:
hypoxanthine [1] = variants of: B1; assay: FACS-Seq fitted mean relative fluorescence mCherry/BFP without ligand (log10 relative fluorescence); ligand: hypoxanthine (xanthine aptamer); higher = higher reporter protein expression; settings: HEK293T, ligand present: no
Summary of the method: (§1)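 An mCherry reporter containing the ribozyme switch and an EF1α-BFP marker were introduced by lentivirus into HEK293T libraries. Cells were enriched, incubated 48 h with or without ligand, sorted into 6 bins by mCherry/BFP, and bin genomic DNA was PCR-amplified, barcoded and sequenced on MiSeq. Fluorescence represents the normalized fitted normal mean of the bin counts. Fitting was done on log10(mCherry/BFP), scaling to five spiked-in control ribozymes.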

hypoxanthine [2] = variants of: B1; assay: normalized RNA/DNA level with ligand (relative to sTRSVctl = 100) (log10 (% of sTRSVctl)); ligand: hypoxanthine (xanthine aptamer); higher = less ribozyme self-cleavage, higher mRNA level; settings: ligand concentration (+) RNA-Seq: 5 mM, HEK293T, reporter: mCherry (pCS4076), ligand present: yes
Summary of the method: (§2)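 HEK293T cells were transfected with library plasmids carrying ribozyme switches linked to an mCherry reporter, or an eGFP reporter in some ligand experiments, at 4 µg per well of a 6-well plate, with any ligand added 1 h beforehand. After 72 h, total RNA was extracted with EDTA, reverse-transcribed, amplified, barcoded and sequenced. RNA level was defined as RNA reads over DNA reads, normalized to a spiked-in non-cleaving sequence or to the top-ranked sequences. That value was multiplied by 100 and converted to log10, the top set was 25 sequences, and only sequences with ≥100 DNA reads were retained.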

hypoxanthine [3] = variants of: B1; assay: normalized RNA/DNA level without ligand (relative to sTRSVctl = 100) (log10 (% of sTRSVctl)); ligand: hypoxanthine (xanthine aptamer); higher = less ribozyme self-cleavage, higher mRNA level; settings: HEK293T, reporter: mCherry (pCS4076), ligand present: no
Summary of the method: as §2

hypoxanthine [4] = variants of: B1; assay: FACS-Seq fitted mean relative fluorescence mCherry/BFP with ligand (log10 relative fluorescence); ligand: hypoxanthine (xanthine aptamer); ligand concentration (+) FACS-Seq: 5 mM; higher = higher reporter protein expression; settings: HEK293T, ligand present: yes
Summary of the method: as §1

Row | Variant | FACS-Seq fitted mean (log10) (hypoxanthine [1]) | normalized RNA/DNA level with ligand (log10) (hypoxanthine [2]) | normalized RNA/DNA level without ligand (log10) (hypoxanthine [3]) | FACS-Seq fitted mean (log10) (hypoxanthine [4])
1 | GCGGGA | 0.182 ± 0.017 | 1.97 ± 0.034 | 1.718 ± 0.012 | 0.591 ± 0.025
2 | AGUGGA | 0.318 ± 0.0063 | 1.9085 ± 0.001 | 1.62 ± 0.047 | 0.468 ± 0.084
3 | GUAGCC | 0.609 ± 0.017 | 1.982 ± 0.014 | 1.83 ± 0.02 | 0.678 ± 0.059
4 | AAGAGG | -0.185 ± 0.01 | 1.43 ± 0.017 | 1.065 ± 0.0061 | 0.478 ± 0.048
5 | GUUACC | -0.307 ± 0.2 | 1.91 ± 0.057 | 1.882 ± 0.018 | -0.559 ± 0.021
6 | AGGUGA | 0.38 ± 0.046 | 1.86 ± 0.028 | 1.46 ± 0.04 | 0.623 ± 0.045
7 | GAUUAA | 0.276 ± 0.0053 | 1.949 ± 0.012 | 1.79 ± 0.044 | 0.381 ± 0.012
8 | GUCGGA | -0.358 ± 0.082 | 1.98 ± 0.055 | 1.79 ± 0.027 | -0.116 ± 0.049
9 | GGACCG | 0.219 ± 0.056 | 1.97 ± 0.03 | 1.79 ± 0.0033 | 0.447 ± 0.027
10 | UAAGGA | 0.215 ± 0.031 | 1.88 ± 0.041 | 1.608 ± 0.0063 | 0.472 ± 0.057
11 | AAGCCA | -0.28 ± 0.034 | 1.94 ± 0.039 | 1.76 ± 0.021 | 0.134 ± 0.017
12 | ACACGG | -0.144 ± 0.07 | 1.79 ± 0.053 | 1.32 ± 0.041 | 0.465 ± 0.024
13 | UUUGAG | 0.198 ± 0.18 | 1.88 ± 0.027 | 1.54 ± 0.021 | 0.502 ± 0.067
14 | GAGCAA | 0.362 ± 0.027 | 1.892 ± 0.013 | 1.581 ± 0.0039 | 0.596 ± 0.09
15 | AUCCGA | 0.296 ± 0.067 | 1.92 ± 0.014 | 1.758 ± 0.012 | 0.5594 ± 0.0019
16 | UGAAGU | 0.226 ± 0.04 | 1.87 ± 0.037 | 1.555 ± 0.012 | 0.496 ± 0.012
17 | UGAAGA | 0.306 ± 0.01 | 1.896 ± 0.015 | 1.55 ± 0.025 | 0.576 ± 0.08
18 | ACAGGG | 0.428 ± 0.034 | 1.83 ± 0.038 | 1.44 ± 0.032 | 0.788 ± 0.041
19 | AUAGGG | 0.023 ± 0.0025 | 1.807 ± 0.011 | 1.38 ± 0.0023 | 0.46 ± 0.053
20 | CGACGC | -0.246 ± 0.0073 | 1.919 ± 0.0071 | 1.87 ± 0.019 | -0.157 ± 0.067
21 | GGGUAU | 0.137 ± 0.2 | 1.94 ± 0.053 | 1.71 ± 0.047 | 0.374 ± 0.03
22 | UAUGUC | -0.423 ± 0.035 | 1.944 ± 0.011 | 1.95 ± 0.053 | -0.356 ± 0.048
23 | AGAGAG | 0.482 ± 0.014 | 1.75 ± 0.036 | 1.32 ± 0.069 | 0.443 ± 0.038
24 | GGCAAG | 0.564 ± 0.072 | 1.88 ± 0.028 | 1.47 ± 0.022 | 0.712 ± 0.075

Row | Variant | FACS-Seq fitted mean (log10) (hypoxanthine [1]) | normalized RNA/DNA level with ligand (log10) (hypoxanthine [2]) | normalized RNA/DNA level without ligand (log10) (hypoxanthine [3]) | FACS-Seq fitted mean (log10) (hypoxanthine [4])
25 | GGGAAG | -0.183 ± 0.0054 | 1.64 ± 0.023 | 1.18 ± 0.014 | 0.325 ± 0.0034
26 | AACAUA | 0.665 ± 0.084 | 1.89 ± 0.021 | 1.801 ± 0.018 | 0.63 ± 0.035
27 | ACCUAG | -0.692 ± 0.013 | 1.86 ± 0.03 | 1.58 ± 0.016 | -0.308 ± 0.028
28 | UACGCA | -0.76 ± 0.081 | 1.924 ± 0.0096 | 1.82 ± 0.019 | -0.297 ± 0.075
29 | ACGAGC | 0.0832 ± 0.041 | 1.84 ± 0.049 | 1.27 ± 0.045 | 0.585 ± 0.029
30 | GAUUUG | 0.162 ± 0.045 | 1.87 ± 0.046 | 1.4542 ± 0.00087 | 0.521 ± 0.0058
31 | GCGUGA | 0.278 ± 0.054 | 1.82 ± 0.048 | 1.4 ± 0.017 | 0.618 ± 0.062
32 | GCGUGG | 0.196 ± 0.064 | 1.6355 ± 0.0011 | 1.13 ± 0.019 | 0.684 ± 0.047
33 | UGAUUU | 0.485 ± 0.022 | 1.945 ± 0.0024 | 1.924 ± 0.012 | 0.6805 ± 0.0064
34 | GAUGCC | 0.537 ± 0.022 | 1.96 ± 0.024 | 1.879 ± 0.018 | 0.5688 ± 0.0033
35 | ACUGAU | 0.247 ± 0.08 | 1.92 ± 0.053 | 1.67 ± 0.026 | 0.431 ± 0.058
36 | UGUACA | 0.848 ± 0.044 | 1.919 ± 0.018 | 1.85 ± 0.066 | 0.78 ± 0.076
37 | GAACAG | 0.213 ± 0.041 | 1.8069 ± 0.00086 | 1.42 ± 0.061 | 0.674 ± 0.014
38 | UAUUGG | 0.528 ± 0.017 | 1.87 ± 0.031 | 1.431 ± 0.011 | 0.745 ± 0.06
39 | AGGGCG | 0.511 ± 0.024 | 1.91 ± 0.028 | 1.57 ± 0.1 | 0.709 ± 0.089
40 | GCGUUG | 0.142 ± 0.042 | 1.78 ± 0.034 | 1.3 ± 0.027 | 0.658 ± 0.021
41 | AUUAGG | 0.0666 ± 0.043 | 1.81 ± 0.045 | 1.31 ± 0.021 | 0.477 ± 0.051
42 | AGUAGA | 0.394 ± 0.025 | 1.83 ± 0.031 | 1.42 ± 0.025 | 0.725 ± 0.0082
43 | CUAGGG | 0.0497 ± 0.042 | 1.89 ± 0.035 | 1.53 ± 0.028 | 0.294 ± 0.039
44 | AUGGGA | 0.29 ± 0.013 | 1.89 ± 0.043 | 1.56 ± 0.08 | 0.592 ± 0.042
45 | AUUACG | 0.368 ± 0.015 | 1.84 ± 0.066 | 1.397 ± 0.00039 | 0.626 ± 0.068
46 | AAAGCA | 0.391 ± 0.034 | 1.93 ± 0.043 | 1.77 ± 0.035 | 0.503 ± 0.023
47 | UUGGCG | 0.088 ± 0.024 | 2.01 ± 0.034 | 1.87 ± 0.037 | 0.648 ± 0.069
48 | GUAGUG | 0.125 ± 0.029 | 1.94 ± 0.037 | 1.428 ± 0.0021 | 0.532 ± 0.051

Row | Variant | FACS-Seq fitted mean (log10) (hypoxanthine [1]) | normalized RNA/DNA level with ligand (log10) (hypoxanthine [2]) | normalized RNA/DNA level without ligand (log10) (hypoxanthine [3]) | FACS-Seq fitted mean (log10) (hypoxanthine [4])
49 | AGCGAG | 0.352 ± 0.055 | 1.8 ± 0.031 | 1.36 ± 0.062 | 0.443 ± 0.043
50 | AGGUAC | 0.133 ± 0.061 | 1.893 ± 0.017 | 1.72 ± 0.02 | 0.0782 ± 0.049
51 | CCUGUG | 0.676 ± 0.039 | 1.97 ± 0.026 | 1.86 ± 0.051 | 0.685 ± 0.086
52 | AUCAUU | 0.581 ± 0.01 | 1.96 ± 0.037 | 1.96 ± 0.029 | 0.691 ± 0.072
53 | ACGGAU | -0.0352 ± 0.029 | 1.7216 ± 0.0016 | 1.24 ± 0.068 | 0.537 ± 0.024
54 | GGUAGU | 0.573 ± 0.11 | 1.9 ± 0.06 | 1.75 ± 0.0084 | 0.507 ± 0.034
55 | ACCCGG | 0.195 ± 0.055 | 1.89 ± 0.034 | 1.48 ± 0.019 | 0.714 ± 0.058
56 | ACCGCC | 0.708 ± 0.051 | 1.938 ± 0.0023 | 1.879 ± 0.0089 | 0.737 ± 0.025
57 | CAUGAG | -0.0522 ± 0.019 | 1.924 ± 0.011 | 1.562 ± 0.0089 | 0.35 ± 0.039
58 | AAUGCA | 0.304 ± 0.078 | 1.9039 ± 0.0013 | 1.772 ± 0.012 | 0.563 ± 0.029
59 | AGCAAC | 0.133 ± 0.046 | 1.91 ± 0.054 | 1.79 ± 0.043 | 0.1066 ± 0.00061
60 | GGAAGA | 0.0989 ± 0.032 | 1.89 ± 0.045 | 1.45 ± 0.032 | 0.576 ± 0.039
61 | AUGACG | 0.0397 ± 0.012 | 1.807 ± 0.0069 | 1.354 ± 0.011 | 0.3727 ± 0.0035
62 | CAGCUC | 0.219 ± 0.029 | 2.03 ± 0.022 | 1.972 ± 0.014 | 0.115 ± 0.03
63 | UUAACG | 0.325 ± 0.025 | 1.94 ± 0.06 | 1.85 ± 0.052 | 0.41 ± 0.025
64 | GAACCA | 0.493 ± 0.094 | 1.948 ± 0.018 | 1.816 ± 0.014 | 0.365 ± 0.0063
65 | ACUACU | 0.265 ± 0.031 | 1.93 ± 0.069 | 1.821 ± 0.01 | 0.443 ± 0.046
66 | AACGGG | 0.0434 ± 0.0087 | 1.83 ± 0.074 | 1.38 ± 0.036 | 0.516 ± 0.021
67 | CCAACC | 0.551 ± 0.044 | 1.94 ± 0.021 | 1.95 ± 0.054 | 0.584 ± 0.055
68 | CAGUAU | 0.355 ± 0.032 | 1.92 ± 0.031 | 1.61 ± 0.062 | 0.629 ± 0.094
69 | UAAAUG | 0.306 ± 0.023 | 1.936 ± 0.015 | 1.73 ± 0.035 | 0.483 ± 0.081
70 | UAUAUG | 0.385 ± 0.02 | 1.88 ± 0.049 | 1.723 ± 0.013 | 0.531 ± 0.025
71 | CGUUAA | 0.0819 ± 0.044 | 1.89 ± 0.019 | 1.62 ± 0.049 | 0.118 ± 0.02
